molecular target: human polyclonal IgG (human); assay: SPR (Biacore), His-tagged fusion protein captured on Ni-NTA chip, human IgG injected

Row | Kd | koff | kon | Binder
1 | 2.06 nM | 0.000312 s⁻¹ | 151000 M⁻¹ s⁻¹ | fusion protein PL1 (designed binder) ATIRANLIYADGRTQTAEFRGTFEEATAEAYRYADLLARENGRYTVDVADRGYTLNIRFAGGGGGCADDDDDDHHHHHH
2 | 0.788 nM | 0.000237 s⁻¹ | 301000 M⁻¹ s⁻¹ | fusion protein PL3 (designed binder) ATIRANLIYADGRTQTAEFRGTFEEATAEAYRYADLLPRENGRYTVDVADRGYTLNIRFAPGATIRANLIYADGRTQTAEFRGTFEEATAEAYRYADLLPRENGRYTVDVADRGYTLNIRFAPGATIRANLIYADGRTQTAEFRGTFEEATAEAYRYADLLPRENGRYTVDVADRGYTLNIRFAGGGGGCADDDDDDHHHHHH
3 | 0.384 nM | 0.000154 s⁻¹ | 401000 M⁻¹ s⁻¹ | fusion protein PG1 (designed binder) AYRLILNGRTLRGETTTEAVDAATAERVFRQYANDNGVDGEWTYDDATRTFTVTERPEVIDASELTPAVTGGGGCADDDDDDHHHHHH
4 | 1.34 nM | 0.000264 s⁻¹ | 246000 M⁻¹ s⁻¹ | fusion protein PL2 (designed binder) ATIRANLIYADGRTQTAEFRGTFEEATAEAYRYADLLPRENGRYTVDVADRGYTLNIRFAPGATIRANLIYADGRTQTAEFRGTFEEATAEAYRYADLLPRENGRYTVDVADRGYTLNIRFAGGGGGCADDDDDDHHHHHH
5 | 0.068 nM | 7.63e-05 s⁻¹ | 1.12e+06 M⁻¹ s⁻¹ | fusion protein PG3 (designed binder) AYRLILNGRTLRGETTTEAVDAATAERVFRQYANDNGVDGEWTYDDATRTFTVTERPEVIDASELTPAVTPGAYRLILNGRTLRGETTTEAVDAATAERVFRQYANDNGVDGEWTYDDATRTFTVTERPEVIDASELTPAVTPGAYRLILNGRTLRGETTTEAVDAATAERVFRQYANDNGVDGEWTYDDATRTFTVTERPEVIDASELTPAVTGGGGCADDDDDDHHHHHH
6 | 0.115 nM | 0.0001 s⁻¹ | 864000 M⁻¹ s⁻¹ | fusion protein PG2 (designed binder) AYRLILNGRTLRGETTTEAVDAATAERVFRQYANDNGVDGEWTYDDATRTFTVTERPEVIDASELTPAVTPGAYRLILNGRTLRGETTTEAVDAATAERVFRQYANDNGVDGEWTYDDATRTFTVTERPEVIDASELTPAVTGGGGCADDDDDDHHHHHH

From patent US20100130721A1
